The supplement of paper PMC11246515
± gives the standard deviation of the averaged measurements.

Assay: total protein half-life in vivo (active degradation + dilution); higher = more stable protein
[1] = E. coli NCM3722 delta-clpP delta-lon delta-hslV, growth: N-lim chemostat, doubling time 6 h
[2] = E. coli NCM3722 delta-clpP, growth: N-lim chemostat, doubling time 6 h
[3] = E. coli NCM3722 delta-hslV, growth: N-lim chemostat, doubling time 6 h
[4] = E. coli NCM3722 delta-lon, growth: N-lim chemostat, doubling time 6 h
[5] = E. coli NCM3722 delta-smpB, growth: N-lim chemostat, doubling time 6 h
[6] = wild type E. coli NCM3722, growth: C-lim chemostat, doubling time 3 h
[7] = wild type E. coli NCM3722, growth: C-lim chemostat, doubling time 6 h
[8] = wild type E. coli NCM3722, growth: C-lim chemostat, doubling time 12 h
[9] = wild type E. coli NCM3722, growth: N-lim chemostat, doubling time 6 h
[10] = wild type E. coli NCM3722, growth: N-lim chemostat, doubling time 12 h
[11] = wild type E. coli NCM3722, growth: P-lim chemostat, doubling time 6 h
[12] = wild type E. coli NCM3722, growth: P-lim chemostat, doubling time 12 h

Sequence | total protein half-life in vivo [1] [h] | total protein half-life in vivo [2] [h] | total protein half-life in vivo [3] [h] | total protein half-life in vivo [4] [h] | total protein half-life in vivo [5] [h] | total protein half-life in vivo [6] [h] | total protein half-life in vivo [7] [h] | total protein half-life in vivo [8] [h] | total protein half-life in vivo [9] [h] | total protein half-life in vivo [10] [h] | total protein half-life in vivo [11] [h] | total protein half-life in vivo [12] [h]
MNDRDFMRYSRQILLDDIALDGQQKLLDSQVLIIGLGGLGTPAALYLAGAGVGTLVLADDDDVHLSNLQRQILFTTEDIDRPKSQVSQQRLTQLNPDIQLTALQQRLTGEALKDAVARADVVLDCTDNMATRQEINAACVALNTPLITASAVGFGGQLMVLTPPWEQGCYRCLWPDNQEPERNCRTAGVVGPVVGVMGTLQALEAIKLLSGIETPAGELRLFDGKSSQWRSLALRRASGCPVCGGSNADPV | 4.92 ± 0.58 | 3.65 ± 0.013 | 3.8 ± 0.15 | 5.12 ± 0.89 | 2.97 ± 0.83 | 2.37 ± 0.41 | 4.03 ± 0.18 | 8.83 ± 2.4 | 3.24 ± 0.079 | 8.28 ± 6.9 | 4.26 ± 0.46 | 7.08 ± 0.84
MNDSEFHRLADQLWLTIEERLDDWDGDSDIDCEINGGVLTITFENGSKIIINRQEPLHQVWLATKQGGYHFDLKGDEWICDRSGETFWDLLEQAATQQAGETVSFR | 5.94 ± 0.86 | 6.07 | 5.73 ± 0.14 | 5.77 ± 0.51 | 4.57 ± 1.3 | 2.95 ± 0.78 | 5.61 ± 1.6 | 9.5 | 5.34 ± 0.45 | 9.68 ± 0.16 | 5.67 ± 0.12 | 11 ± 0.23
MNDTYQPINCDDYDNLELACQHHLMLTLELKDGEKLQAKASDLVSRKNVEYLVVEAAGETRELRLDKITSFSHPEIGTVVVSES [P0AFW8] | – | 4.86 ± 0.14 | 1.83 | 2.15 ± 0.34 | 1.79 ± 0.12 | – | 1.91 | 3.49 ± 0.41 | 2.05 ± 0.44 | 3.37 | 3.17 ± 1.2 | 5.3 ± 1.6
MNEAVSPGALSTLFTDARTHNGWRETPVSDETLREIYALMKWGPTSANCSPARIVFTRTAEGKERLRPALSSGNLQKTLTAPVTAIVAWDSEFYERLPLLFPHGDARSWFTSSPQLAEETAFRNSSMQAAYLIVACRALGLDTGPMSGFDRQHVDDAFFTGSTLKSNLLINIGYGDSSKLYARLPRLSFEEACGLL | – | 1.43 | 0.257 ± 0.15 | 0.612 ± 0.095 | 0.402 | – | – | – | 0.94 ± 0.6 | – | – | –
MNEQNLKHVIALLLEDAKRLQQIEPNAGTEARILLAKQALKTCGAQAPGRTEFMNFMANTLTPLPCNGEKVSRVYHDTMVKALRIELDGLRRKIVMNEIVTN | 4.2 | 4.79 | – | – | – | – | – | – | 4.61 | – | – | –
MNEQYSALRSNVSMLGKVLGETIKDALGEHILERVETIRKLSKSSRAGNDANRQELLTTLQNLSNDELLPVARAFSQFLNLANTAEQYHSISPKGEAASNPEVIARTLRKLKNQPELSEDTIKKAVESLSLELVLTAHPTEITRRTLIHKMVEVNACLKQLDNKDIADYEHNQLMRRLRQLIAQSWHTDEIRKLRPSPVDEAKWGFAVVENSLWQGVPNYLRELNEQLEENLGYKLPVEFVPVRFTSWMGGDRDGNPNVTADITRHVLLLSRWKATDLFLKDIQVLVSELSMVEATPELLALVGEEGAAEPYRYLMKNLRSRLMATQAWLEARLKGEELPKPEGLLTQNEELWEPLYACYQSLQACGMGIIANGDLLDTLRRVKCFGVPLVRIDIRQESTRHTEALGELTRYLGIGDYESWSEADKQAFLIRELNSKRPLLPRNWQPSAETREVLDTCQVIAEAPQGSIAAYVISMAKTPSDVLAVHLLLKEAGIGFAMPVAPLFETLDDLNNANDVMTQLLNIDWYRGLIQGKQMVMIGYSDSAKDAGVMAASWAQYQAQDALIKTCEKAGIELTLFHGRGGSIGRGGAPAHAALLSQPPGSLKGGLRVTEQGEMIRFKYGLPEITVSSLSLYTGAILEANLLPPPEPKESWRRIMDELSVISCDVYRGYVRENKDFVPYFRSATPEQELGKLPLGSRPAKRRPTGGVESLRAIPWIFAWTQNRLMLPAWLGAGTALQKVVEDGKQSELEAMCRDWPFFSTRLGMLEMVFAKADLWLAEYYDQRLVDKALWPLGKELRNLQEEDIKVVLAIANDSHLMADLPWIAESIQLRNIYTDPLNVLQAELLHRSRQAEKEGQEPDPRVEQALMVTIAGIAAGMRNTG | 5.93 ± 0.19 | 5.73 ± 0.32 | 5.54 ± 0.18 | 5.364 ± 0.041 | 5.04 ± 0.057 | 2.97 ± 0.16 | 5.78 ± 0.22 | 10.98 ± 0.089 | 5.22 ± 0.11 | 10.6 ± 0.79 | 5.97 ± 0.078 | 11.8 ± 0.8
MNFEGKIALVTGASRGIGRAIAETLAARGAKVIGTATSENGAQAISDYLGANGKGLMLNVTDPASIESVLEKIRAEFGEVDILVNNAGITRDNLLMRMKDEEWNDIIETNLSSVFRLSKAVMRAMMKKRHGRIITIGSVVGTMGNGGQANYAAAKAGLIGFSKSLAREVASRGITVNVVAPGFIETDMTRALSDDQRAGILAQVPAGRLGGAQEIANAVAFLASDEAAYITGETLHVNGGMYMV [P0AEK2] | 5.03 ± 0.11 | 4.85 ± 0.11 | 4.8 ± 0.2 | 5.27 ± 0.39 | 4.814 ± 0.012 | 2.98 ± 0.11 | 5.91 ± 0.17 | 12.8 ± 3.6 | 4.81 ± 0.28 | 8.546 ± 0.024 | 6.06 ± 0.38 | 11.3 ± 0.73
MNFHHLAYWQDKALSLAIENRLFINGEYTAAAENETFETVDPVTQAPLAKIARGKSVDIDRAMSAARGVFERGDWSLSSPAKRKAVLNKLADLMEAHAEELALLETLDTGKPIRHSLRDDIPGAARAIRWYAEAIDKVYGEVATTSSHELAMIVREPVGVIAAIVPWNFPLLLTCWKLGPALAAGNSVILKPSEKSPLSAIRLAGLAKEAGLPDGVLNVVTGFGHEAGQALSRHNDIDAIAFTGSTRTGKQLLKDAGDSNMKRVWLEAGGKSANIVFADCPDLQQAASATAAGIFYNQGQVCIAGTRLLLEESIADEFLALLKQQAQNWQPGHPLDPATTMGTLIDCAHADSVHSFIREGESKGQLLLDGRNAGLAAAIGPTIFVDVDPNASLSREEIFGPVLVVTRFTSEEQALQLANDSQYGLGAAVWTRDLSRAHRMSRRLKAGSVFVNNYNDGDMTVPFGGYKQSGNGRDKSLHALEKFTELKTIWISLEA | 3.96 ± 0.66 | > 8 | 1.03 ± 0.13 | – | 1.11 ± 0.082 | 2.68 ± 0.027 | 2.8 ± 0.14 | 3.22 ± 0.67 | 1.43 ± 0.29 | 1.48 | 4.1373 ± 0.0017 | 6.22 ± 0.066
MNFRRLKYFVKIVDIGSLTQAAEVLHIAQPALSQQVATLEGELNQQLLIRTKRGVTPTDAGKILYTHARAILRQCEQAQLAVHNVGQALSGQVSIGFAPGTAASSITMPLLQAVRAEFPEIVIYLHENSGAVLNEKLINHQLDMAVIYEHSPVAGVSSQALLKEDLFLVGTQDCPGQSVDVNAIAQMNLFLPSDYSAIRLRVDEAFSLRRLTAKVIGEIESIATLTAAIASGMGVAVLPESAARSLCGAVNGWMSRITTPSMSLSLSLNLPARANLSPQAQAVKELLMSVISSPVMEKRQWQLVS | 6.26 ± 0.89 | 2.6 ± 0.032 | 0.485 ± 0.11 | 0.469 | 1.83 ± 0.15 | – | – | – | 0.978 ± 0.3 | 1.31 ± 0.14 | – | –
MNHAPHLYFAWQQLVEKSQLMLRLATEEQWDELIASEMAYVNAVQEIAHLTEEVDPSTTMQEQLRPMLRLILDNESKVKQLLQIRMDELAKLVGQSSVQKSVLSAYGDQGGFVLAPQDNLF [P0ABY2] | – | – | – | – | – | 0.191 | – | – | – | – | – | –
MNHSETITIECTINGMPFQLHAAPGTPLSELLREQGLLSVKQGCCVGECGACTVLVDGTAIDSCLYLAAWAEGKEIRTLEGEAKGGKLSHVQQAYAKSGAVQCGFCTPGLIMATTAMLAKPREKPLTITEIRRGLAGNLCRCTGYQMIVNTVLDCEKTK | 4.15 | – | 1.29 | – | 1.2 | 1.46 ± 0.069 | 2.29 ± 0.2 | 3.5 ± 0.34 | – | – | – | 3.76
MNIDTREITLEPADNARLLSLCGPFDDNIKQLERRLGIEINRRDNHFKLTGRPICVTAAADILRSLYVDTAPMRGQIQDIEPEQIHLAIKEARVLEQSAESVPEYGKAVNIKTKRGVIKPRTPNQAQYIANILDHDITFGVGPAGTGKTYLAVAAAVDALERQEIRRILLTRPAVEAGEKLGFLPGDLSQKVDPYLRPLYDALFEMLGFEKVEKLIERNVIEVAPLAYMRGRTLNDAFIILDESQNTTIEQMKMFLTRIGFNSKAVITGDVTQIDLPRNTKSGLRHAIEVLADVEEISFNFFHSEDVVRHPVVARIVNAYEAWEEAEQKRKAALAAERKREEQEQK [P0A9K3] | 5.2 ± 0.69 | 4.25 ± 0.14 | 2.95 ± 0.066 | 4.1 ± 0.2 | 3.167 ± 0.017 | 2.77 ± 0.3 | 4.809 ± 0.025 | 7.67 ± 0.34 | 3.15 ± 0.17 | 4.373 ± 0.043 | 4.37 ± 0.17 | 7.78 ± 0.12
MNIEELKKQAETEIADFIAQKIAELNKNTGKEVSEIRFTAREKMTGLESYDVKIKIM [P0AC92] | > 8 | 5.88 ± 0.43 | 6.62 ± 0.26 | 6.72 ± 0.85 | 5.86 ± 0.59 | 2.98 ± 0.29 | 4.55 ± 2.8 | 10 ± 1.4 | 5.99 ± 1.4 | – | 6.14 | –
MNIELRHLRYFVAVAEELHFGRAAARLNISQPPLSQQIQALEQQIGARLLARTNRSVLLTAAGKQFLADSRQILSMVDDAAARAERLHQGEAGELRIGFTSSAPFIRAVSDTLSLFRRDYPDVHLQTREMNTREQIAPLIEGTLDMGLLRNTALPESLEHAVIVHEPLMAMIPHDHPLANNPNVTLAELAKEPFVFFDPHVGTGLYDDILGLMRRYHLTPVITQEVGEAMTIIGLVSAGLGVSILPASFKRVQLNEMRWVPIAEEDAVSEMWLVWPKHHEQSPAARNFRIHLLNALR | 6 ± 0.22 | 5.84 ± 0.3 | 6.28 ± 0.17 | 5.5 ± 0.23 | 5.65 ± 0.16 | – | 6.3 ± 1.5 | 11.97 ± 0.024 | 6.8 ± 0.96 | 12.5 ± 1.8 | 5.12 ± 0.62 | 13.3 ± 0.86
MNIFEQTPPNRRRYGLAAFIGLIAGVVSAFVKWGAEVPLPPRSPVDMFNAACGPESLIRAAGQIDCSRNFLNPPYIFLRDWLGLTDPNAAVYTFAGHVFNWVGVTHIIFSIVFAVGYCVVAEVFPKIKLWQGLLAGALAQLFVHMISFPLMGLTPPLFDLPWYENVSEIFGHLVWFWSIEIIRRDLRNRITHEPDPEIPLGSNR [P0AAA1] | 6.706 ± 0.025 | – | – | 6.72 ± 0.32 | 6.16 ± 0.29 | 3.21 ± 0.28 | 6.707 ± 0.0077 | 14.5 ± 0.3 | 5.96 ± 0.12 | – | 6.57 ± 1.5 | 13.7 ± 1.1
MNIFTEAAKLEEQNCPFAMAQIVDSRGSTPRHSAQMLVRADGSIVGTIGGGMVERKVIEESLQALQERKPRLFHGRMARNGADAVGSDCGGAMSVFISVHGMRPRLVLIGAGHVNRAIAQSAALLGFDIAVADIYRESLNPELFPPSTTLLHAESFGAAVEALDIRPDNFVLIATNNQDREALDKLIEQPIAWLGLLASRRKVQLFLRQLREKGVAEEHIARLHAPVGYNIGAETPQEIAISVLAEILQVKNNAPGGLMMKPSHPSGHQLVVIRGAGDIASGVALRLYHAGFKVIMLEVEKPTVIRCTVAFAQAVFDGEMTVEGVTARLATSSAEAMKLTERGFIPVMVDPACSLLDELKPLCVVDAILAKQNLGTRADMAPVTIALGPGFTAGKDCHAVIETNRGHWLGQVIYSGCAQENTGVPGNIMGHTTRRVIRAPAAGIMRSNVKLGDLVKEGDVIAWIGEHEIKAPLTGMVRGLLNDGLAVVGGFKIGDIDPRGETADFTSVSDKARAIGGGVLEALMMLMHQGVKATKEVLEVA | 5.14 ± 0.82 | 1.65 ± 0.36 | – | – | – | – | – | – | – | 1.22 | – | –
